The text below walks through data of paper doi:10.1101/2023.08.08.552518.

In this data set the target is human alpha-thrombin (human, UniProt P00734;P00734 328-363;364-622). The experiment in a line: BLI.

GGTTGGTGTGGTTGG (structured_DNA) [TBA-Bt] yielded a Kd of 114 nM. TCACTGTGGTTGGTGTGGTTGGTTTTTTTTTTTTACAGTG (structured_DNA) [ISD-Bt] displayed a Kd of 246 nM.
